This passage reports percent of particles with a second NCP in the proximity results from PMC5935684.

For the test, the target named is nucleosome core particle assembled on a 149 bp long 601 DNA sequence (Xenopus laevis). The test can be described thus: cryo-EM micrographs and 2D classification; NCPs on 149 bp 601 DNA at 150 mM NaCl; particles with a second NCP in the proximity counted by 2D classification (Relion).

As to “nucleosome core particle assembled on a 149 bp long 601 DNA sequence (complex)”, the percent of particles with a second NCP in the proximity worked out at 20%.
